Data published in publication PMC8267615.

Tests used:
[1] = biological target: TREM-1 expressed on the monocyte cell membrane (human (endogenous in monocytes)) (UniProt Q9NP99)
[2] = biological target: TREM-1 expressed on the monocyte cell membrane (human (endogenous in monocytes)) (UniProt Q9NP99); remark: listed apart in the source

TREM-1 expressed on the monocyte cell membrane (human (endogenous in monocytes)), sequence (Q9NP99 21-234): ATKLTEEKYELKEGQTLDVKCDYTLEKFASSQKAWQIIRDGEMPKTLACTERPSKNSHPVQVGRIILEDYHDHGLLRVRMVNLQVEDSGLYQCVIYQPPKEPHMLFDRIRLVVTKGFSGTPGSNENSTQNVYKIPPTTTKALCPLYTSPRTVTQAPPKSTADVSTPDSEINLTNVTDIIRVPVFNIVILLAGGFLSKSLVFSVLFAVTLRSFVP

recombinant human Hsp70 (major heat shock protein 70) (from UniProt P0DMV8 1-641) (natural protein)
cytotoxicity against target cells of lymphocytes activated in PBMCs by six-day treatment with rising Hsp70 concentration (half maximal effective concentration) [1]: 0.5 nM
inhibition of the cytotoxicity of Hsp70-activated lymphocytes by the TREM-1 inhibitor peptide LP17 (…), against LP17 concentration; not completely suppressed at higher concentration [1]: 0.01 nM
cytotoxic activity of NK cells isolated on days four and six from PBMCs incubated with Hsp70 with or without the TREM-1 inhibitor LP17 (no difference on day six) [2]: 40%
